Experiment: soluble on expression in E. coli; label from the status in PepcDB or PDB records

Soluble on expression in E. coli, not soluble:
MGSDKIHHHHHHMPLLPQPAGSVTTGRYTFAAAQVHAQTLTVCIVCNNTLYPAGSAVMSRVNVSLLQSGMILSEDVTDSNGRKLLCAGDAITEKHLRILKIWGVAEVDVEGIEPADAARSALDGLDPLRVEAAAARATARFALNDLQYEPVCMLMQCSVAALAKGADPVAPLPDYSVLPAAPMPSAPPALADMLRDDTRLGSLPPVFHRLVDVVNDPRSSATDMAEVIANDTDLSARLLRLVNSTFYGLRAKVDTITRAVTIIGSNQLVSLAMGAVMTTFFKGLPNSIVDMRSFWEHSVACGVAARLLASLHRMPNTERFFVAGLLHDIGRLAVYRLLPEHSLYMLTESRRRGISMRAMEREVLGFSHDRLGGRLLKEWRCPVSLERNVALHHTPGSGHGGLESAIINVADILAHTLEFGTSGEVLVPRLEQAVWDALALPAGTLEQAAAQMDYQVHEIIRFFELDE
MGSDKIHHHHHHMPLTMNKDVFITCAVTGSGSTQDRSPHVPRSPKQIAESAIEAARAGAAIVHCHVRDPESGAPSRDLSYYREVTDRIREADIDVVLNLTAGMGGDITFGSTDAPFPVDEAGTDMVGAAERVAHIADCLPEICTLDCGTMNFAEADYVMTNTPGMLRAMGRMMTDLGVKPEIEAFDTGHLWFAKELVKEGVLDSPALVQLCMGVPWGAPDDLNTFMAMVNNVPDNWTFSAFALGRNEMAYVAASVLAGGNVRVGLEDNLWLEKGVLATNAQLVEQAVGIIEGMGARVIGPDMVRETLGLTKQAPA
MGSDKIHHHHHHMPMNIVQVIPSFNVGGGELLAVRLCAEIKNQRPDYKVTLISLYDPIPSIVYDEALASDAQIVTLGKKKGFDPFTPLRMLKTLRAIKPDVIHTHLAGLRYTLLAGVLGNYSLKVHTVHNLATHETFGFLKNVHRVAFKFFSWIPVSLSKEVQDSVRDMYCLESVIVNNGIKTNSEIINKSKEDIRKHYGLPLNSKIIITIGRLCTQKNQLLLIESFNKVCKNAENYTLLIVGEDNLNGSYKNKIDKIISELPDITRENLHLLGPRKDIPELLIASDVFVLSSDWEGVPLTLLEAMGYGTPVVCTSVGGIPDVIEHGFDGLLVSKGDSKSLGNAIIEVLSNNSFASSLAHNARKKFSQLYSIEMTAEKYLQLYNA
MGSDKIHHHHHHMPNIPLRVNSLATEHPNNAQNSDKMPTFDAIFSHLSAIASHNSHQIIALLPSSDANWPAALIAERLTQAGSKQHLQKQHLHLHLFAQHQASWLKALAESETLASPAKEQIKAICDARVSGSHRLKLVNARLIIDIHLGDPLTQLKDLVSPSLASQAIQGWLANTQATDEALIWQMARLSQDNAEFLLLENNDVNLDKTSNNANTNLLTQLIIKAGFTCYRLNLSLKDDQLVTLAEKPSLASLEIAMVERRALRRQQLDKFAFNPLTQGREGETAIIGGGVASANLALSLAERGKKVSFFCMDKAPGEQASGNKQGAIYPLLTPEHGSLSHYFLLGYLFSRQRIKQLLESGHEIPHDFCGVLQTGHDERSHKRLTKIINAQPWAESIARPVDALQATALAGVTIEHQGIYYPLAGWVSPQ
MGSDKIHHHHHHMPPRPFDEMTNPDGGIRSPYGLYSDWVNQTPLDVLRQKHAQADVLFRRIGITFAVYGDNQGGERLIPFDVVPRIISKKEWDILSRGVCQRVDALNRFIYDVYHDQEILKAGKVPKGLVRNNGQFRKEMVGFTPPRNLYVQIAGIDIVRTAENEFHVLEDNLRTPSGVSYMLENRDVMTRLFPELFNRHPVAPVNHYAQELLKTLQYSAPDHADNPTVVVLTPGQYNSAYFEHAFLADEMGIELVQGQDLFVEGGHVYMRTIAGPQRVDVIYRRIDDDFLDPLAFRKDSMLGVPGLFEAYRSGAVTLANAIGTGIADDKAIYDFVPGMIEFYLGEKPILRNVPTYHLDDDDDRAYVLEHLAELVVKEVHGSGGYGMLVGPRASRQQISDYRDRILADPANFIAQPTLALSTCPTFVDQGLAPRHVDLRPFVLAGKTTQVVPGGLTRVALEKDSLVVNSSQGGGTKDTWVLER
MGSDKIHHHHHHMPQTEAPDRILLIKLRHHGDILLTTPVARTLKSRFPQCEIDMLVYRETVPLLQHNPDIARVWTLDRSLRGWRKLVSQLRLLLALRRRRYQTVIHLSDQMQGAFFAKLLARRHAIGFDYPKRRKSPWHRFFTALAPLAPSDTLHTVSQNLLALSPLGITPTADEQRCVLPIQASDREAVAALLREAGVSGPYIVIHPSSRWFFKCWEDDRFAGLAEALASDGWSIVLTAAPDPAEMDMVAAIQGKIRSDRVVSVAGRLTLNQLAAIIDGARMFIGVDSVPMHMAAALGKDTVALFGPSKIHEWHPWMTRHRLLNAADYGELIDPDQVDTSTRQRYLKNIPLEAALRASRELLSSPAQE
MGSDKIHHHHHHMPSSVCGDPMMCQNCKKSVPNAIFHVYHRRGFHYPAQKCEENFILFLIKGEMLVNSREYAGTMLKAGEFMLQPISSKIEMLAMTDVECIYYQFNQPELFCDIRYNRIMKETDPPLIPSPLPIIPELQHFLESARTYLSEKKICRDLLSLKRKELAFILGYFYSDYDLASLVHPLSKYASSFECFVYQNYKKVKTVEEFAKLGGYSQTTFRRIFDNVFHEPVYEWMLSRRKEEIIYELQNTEATISEICYKFGFESLPHFSNFCKKSFGTSPRSIRLKRSSE
MGSDKIHHHHHHMPTINSIQTTVNGVVKIVKPFNNDIAGEQFDPHVLQTLTAFKQPAILENDLAALRSGSLTPAIADPVGDAVTVQSRNITALNRTVSVEWLTPQNVINHTVLVYFHGGAFYGGVPGNNTVLLKLVAAKSHCEILNVDYSLAPEAPAPAGILDGLAIFQYLEQRDAETMITVAGDSAGANVIMAATNLNQQLGSNRINQQLLLYPVTAPNADHAGPLWDLAAFPIIDSQRAILTNYHDLFRQLDSIMTDYYVPENFDSHSPLISPLHQENFTMTPPTTIMVGEFDPFRPQAWAYAQRLAAADTATTFIQYQGLNHAFAPLVDQYWQSQDVAQVMAAALI
MGSDKIHHHHHHMPVFYPAVQGSLPMGGQESLPLRRLKSFQPLGRLTDDQLVLLASRAERRTHGPGQRVMERGVRDGLDYFLISGAVELQSVDGRKSTIEAETDKALNPVARLQPRMYDVTAVKPCEFLVIEQEVLNQMLRAAPISQVEMDSSDHDEDQSEEHHLLMEFYSELRSNQVQLPSVPDVAWKVRRVVDREDSSATEVASAVSADPAMAAKLVRSCNSPLYRGFSDVRNVREAVVRLGMRTTRQLVTVFAMREVFKTRRAPLQKEMEQLWRHSREVAALCWVLADHATRIDPEEALLAGLLHDIGVVPVLVQAEHHVNLFADDRNLHHAIDELRADVGCAVLENWAFPKAFVEAVRHAEDWHHECRETAPQLVDVVIVAQLHSMIGSSQNEGLPAFDQVPAWRRLGELELNASRSLQLLSEARERVDEVQKLLSIR
MGSDKIHHHHHHMPVMDRAAMRTMATLQPSCMRWLCTTPSILDAAKAGWPISWAATPDSPATVTIRQFQASTCCRKKTFDVVVNTDVLEHVPEAELDCVLRDFRKLSTNAIIIPHLAKATRILPNGENAHCTIKTPSEWAQVFKRHYAHVYELPHHSAVHALFLCGDQERDVTALRGILEQYVAAKNEVRHHLLPLGKRIEKAIRLIRGKDINR
MGSDKIHHHHHHMQAFDELLTVEQLSFSYEEDEKPVFQDISFELQKGECVLLLGPSGCGKSSLALCLNGLYPEACDGIQSGHVFLFQKPVTDAETSETITQHAGVVFQDPDQQFCMLTVEDEIAFGLENLQIPKEEMTEKINAVLGKLRITHLKEKMISTLSGGQKQKVALACILAMEPELIILDEPTSLLDPFSAREFVHLMKDLQREKGFSLLVIEHQLDEWAPWIERTIVLDKSGKKALDGLTKNLFQHEAETLKKLGIAIPKVCHLQEKLSMPFTLSKEMLFKEPIPAGHVKKKKAPSGESVLEVSSLSFARGQQAIFKDISFSLREGSLTALVGPNGTGKSTLLSVLASLMKPQSGKILLYDQPLQKYKEKELRKRMGFVFQNPEHQFVTDTVYDELLFGQKANAETEKKAQHLLQRFGLAHLADHHPFAISQGQKRRLSVATMLMHDVKVLLLDEPTFGQDARTAAECMEMIQRIKAEGTAVLMITQGYGASLFVC
MGSDKIHHHHHHMQFPSIEDLRARNTMKWTRYGQGVLPLWVAESDFSTCPAVLQAITDAVQREAFGYQPDGSLLSQATAEFYADRYGYQARPEWIFPIPDVVRGLYIAIDHFTPAQSKVIVPTPAYPPFFHLLSATQREGIFIDATGGINLHDVEKGFQAGARSILLCNPYNPLGMVFAPEWLNELCDLAHRYDARVLVDEIHAPLVFDGQHTVAAGVSDTAASVCITITAPSKAWNIAGLKCAQIIFSNPSDAEHWQQLSPVIKDGASTLGLIAAEAAYRYGTDFLNQEVAYLKNNHDFLLHEIPKRIPGAKITPMQATYLMWIDFRDTTIEGSPSEFFIEKAKVAMNDGAWFGEDGTGFCRLNFATSREVLEEAIDRMAKAVSHHT
MGSDKIHHHHHHMQISNEDYEQLKPLLFSLGYRLLGSVTDAEDLVQETFLRAYQAEEREINNKKAYLCKMMTNRCLDVLKSARRKREQYVGPWLPEPLLITSDDPSEAILQKEGLSMAYLRMMEHLTPHERAVFLLREVFTFSYREIASMMEKKEDNCRKLYSRAKEKLSAVKGESLHYENNRSVVDRFIHSFQTEDQGDLLELLSDHVTLYTDGGGKVRAALRPIYTKDHVAAFLFGIAKKRPNDFYVEVKNVNGQPALISYADSKLYNVICFYIVGGQIQDIYIIMNPEKLPSNG
MGSDKIHHHHHHMQKEQCYMCEKSATSAEHVPPKCLFPEFKDAKKNLRVNLITVPSCDEHNGKKSHDDEFLMVSIAGIIGNNSIGYQHYSGKIQRALRRTSYKLLEKVFLRKELVRIGDENKFIEILWGTPDYERLINCFSHIAYGIYHHHFKQKFYGVLKPYLGFLHTNEQNPKAFKAFIKEKVRVELADEPKYGDNLEVFYYQFTKPDNFGIFLVKLCFYQNVDVFVSYMPSGAQKPTHLGFELMNRGIKTIITLGDKEYEFN
MGSDKIHHHHHHMQKIFDAHLHLWDLEKIPISWIKDDEKLEQNYDFFRMKQEYKEFEFIGAMYVEVNSDDLEKEALFALEQKKLHNLLFCLADFKHKEELSSFREVMHTSKKGAKRLFEADFEEKIEILKTFNIPFEACIKNEELGFLEKFLSKNPNLKVVLNHLGSPKINRLNEYKKDLSFLKKFQNLYIKLSIPDGFSQETPKEFIFELFAFLKENFSENKFIFGSNYPVAKITPAKWAKLIIESKIFDDLDKIFYKNALLIYKGG
MGSDKIHHHHHHMQKTLNTKKANLAMERAGLTQTAVAESLAVSKEAVSQWLSSKSFPRPNKLLQLGKLLGLPFDELVIKEDPFTPKVAFRKKAGTKTKDHHIEKAQEMGRFLRHLVAYLPFDTLEMPPVLKSPSCEYDYLCKVTAKVREDINVGTAECIDFSHLIRRFSELQAVVVPVMWGVKQRHENAVHIHLPDSQSTWVYLNLDTNIHDFKFWMAHELGHCLSPSLEGDNAEDFADAFAATLLYPNELAEKAYTSINAQPSPAAKIAHVVDLADQFTISPYTVLGQANKYALSTGRNEIKLSNSFHGAVTNFNKRYKNLSEALFGDAELDEHGKPSAKEYINKAETAFETPFFELLRKYLKEHDKGPGFVQTVLDMPLLDARSIHTELT
MGSDKIHHHHHHMQLDKIIAQNIVKRAMNIIGCSVNVMDHHGIIIASGNPARLNQLHTGAVLALRQNRMVEVDENLAEKWNFDAHPGINVPIQYLGNNIGVIGISGVPEQVKPYAELVKMTAELIIEQHILLEKESWNRRYKEEFILQLVKGNLSLAEIQQQAAFFSFALDIPRVVIIIKLLHPNADSLQQLVGYLEQPQFEQDVAILSLDQIIILQPFNIFAQFGKQLKKLLPKDYSQQDYKIAIGAQLECPAGEQLHLSYRSALSTLQYGLKHYPRKTLYFFEQYRLPVLLAGIADSWQAEELLKPLKALFSEENALLFKTLQQYFLSNCDLVLTAQKLFIHPNTLRYRLAKIEQITALSFNKIEDRFSLYLSTVLI

Reference: the DeepSol protein solubility set
